Assay results: the nanobody polyreactivity screen of Harvey et al. (2022)

Experiment: yeast display, Sf9 membrane polyspecificity reagent, FACS + sequencing; frameworks hold sequencing errors
In short: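 Galactose-induced (36–48 hours) yeast carrying a synthetic nanobody display library were exposed to 10% biotinylated, detergent-solubilized Sf9 membrane reagent at 4 °C for 1 hour. FACS followed streptavidin microbead enrichment, using low and high (top ~1%) gates for expression (anti-HA) and reagent binding (streptavidin). Colony PCR, MiSeq 2 × 250 sequencing and CDR-length filtering followed. Labels for polyreactivity reflect the gate of origin.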

Sequence: QVQLVESGGGLVQAGGSLRLSCAASGFTFDSNAMGWYRQAPGKERELVAAISSSGGSTYYADSVKGRFTISRDNAKNTVYLQMNSLKPEDTAVYYCNARRRTVPYRYDYWGQGTQVTVSS
- polyreactivity (PSR sort gate): high polyreactivity

Sequence: QVQLVESGGGLVQAGGSLRLSCAASGFTFDSYAMGWYRQAPGKERELVAAITSGDSTHYADSVKGRFTISRDNAKNTVYLQMNSLKPEDTAVYYCAASGFPYPYDYWGQGTQVTVSS
- polyreactivity (PSR sort gate): low polyreactivity

Sequence: QVQLVESGGGLVQAGGSLRLSCAASGFTFDSYAMGWYRQAPGQERELVPAISSSSSTNYADSVKGRFTISRDNAKNTVYLPLNSLKPEDTAVYYCNADSPEGYRLLDYWGQGTQVTVSS
- polyreactivity (PSR sort gate): low polyreactivity

Sequence: QVQLVESGGGLVQAGGSLRLSCAASGFTFDTNVRGWYRQAPGKERELVAAITGPGGSTYYADSVKGRFTISRDNAKNTVYLQMNSLNPEDTAVYYCNRVYYRRRLYDYWGQGTQVTVSS
- polyreactivity (PSR sort gate): high polyreactivity

Sequence: QVQLVESGGGLVQAGGSLRLSCAASGFTFDVYAMGWYRQAPGKERELVAAIDSGGSTNYADSVKGRFTISRDNAKNTVYLQMNSLKPEDTAVYYCAAPFVGSVVIRRWDEYDYWGQGTQVTVSS
- polyreactivity (PSR sort gate): low polyreactivity

Sequence: QVQLVESGGGLVQAGGSLRLSCAASGFTFDVYTMGWYRQAPGKEREFVAAISGSGGSTYYADSVKGRFTISRDNAKNTVYLQMNSLKPEDTAVYYCNAGLSRVSHRHRSHSLQGYDYWGQGTQVTVSS
- polyreactivity (PSR sort gate): low polyreactivity

Sequence: QVQLVESGGGLVQAGGSLRLSCAASGFTFDVYTMGWYRQAPGKERELVASITYSGGDTYADSVKGRFTISRDNAKNTVYLQMNRLKPEDTAVYYCNAVVYYYLDEYWGQGTQVTVSS
- polyreactivity (PSR sort gate): high polyreactivity

Sequence: QVQLVESGGGLVQAGGSLRLSCAASGFTFDWNAMGWYRQAPGKERELVAAISSSTGRTYYADSVKGRFTISRDNAKNTVYLQMNSLKPEDTAVYYCAASLGGYGERYYYWGQGTQVTVSS
- polyreactivity (PSR sort gate): high polyreactivity

Sequence: QVQLVESGGGLVQAGGSLRLSCAASGFTFDWYAMGWYRPAPGKERELVAAISSGGNTKYADSVKGRFTISRDNAKNTVYLQMNSLKPEDTAVYYCAARLYYSLSYYYWGQGTQVTVAS
- polyreactivity (PSR sort gate): high polyreactivity

Sequence: QVQLVESGGGLVQAGGSLRLSCAASGFTFDWYAMGWYRQAPGKERELVAAISSGGNTKYADSVKGRFTISRDNAKNTVYLQMNSLKPEDTAVYYCAARLYYSLSYYYWGQGTQVTVSS
- polyreactivity (PSR sort gate): high polyreactivity

Sequence: QVQLVESGGGLVQAGGSLRLSCAASGFTFDYYAMGRDIPAPGKERELVAAISRAGSTNYADSVKGRFTISRDNAKNTVYLQMNSLKPEDTAVYYCNKGYHSWSRLSQFGWSYDYWGQGTQVTVSS
- polyreactivity (PSR sort gate): high polyreactivity

Sequence: QVQLVESGGGLVQAGGSLRLSCAASGFTFDYYAMGWYRQAPGKERELVAAINYSGGSTYYADSVKGRFTISRDNAKNTVYLQMNSLKPEDTAVYYCNAVGYSVFRRYNYWGQGTQVTVSS
- polyreactivity (PSR sort gate): high polyreactivity

Sequence: QVQLVESGGGLVQAGGSLRLSCAASGFTFDYYAMGWYRQAPGKERELVAAISSSGGSTYYADSVKGRFTISRDNAKNTVYLQMNSLKPEDTAVYYCATGHSKKYDYWGQGTQVTVSS
- polyreactivity (PSR sort gate): high polyreactivity

Sequence: QVQLVESGGGLVQAGGSLRLSCAASGFTFDYYAMGWYRQAPGKERELVAAITRSGTRTYYADSVKGRFTISRDNAKNTVYLQMNSLKPEDTAVYYCNVEYPKRANLSDYWGQGTQVTVSS
- polyreactivity (PSR sort gate): high polyreactivity

Sequence: QVQLVESGGGLVQAGGSLRLSCAASGFTFDYYTMGWYRQAPGKERELVAAITSSAGSTDYADSVKGRFTISRDYAKNTVYLQMNSLKPEDTAVYYCNADFLYGTYDYWGQGTQVTVSS
- polyreactivity (PSR sort gate): low polyreactivity

Sequence: QVQLVESGGGLVQAGGSLRLSCAASGFTFEDNTMGWYRQAPGKERELVAAITWGGVSTYYADSVKGRFTISRDNAKNTVYLQMNSLKPEDTAVYYCARDYDVYTVYLMDYWGQGTQVTVSS
- polyreactivity (PSR sort gate): low polyreactivity

Sequence: QVQLVESGGGLVQAGGSLRLSCAASGFTFEENDMGWYRQAPGKETELVAAINWSGGNTYYADSVKGRFTISRDNAKNTVYLQMNSLKPEDTAVYYCAADSPRYYYWVGPYYGYDYWGQGTQVTVSS
- polyreactivity (PSR sort gate): high polyreactivity

Sequence: QVQLVESGGGLVQAGGSLRLSCAASGFTFEFNVMGWYRQAPGKERELVASIRWGSTSYADSVKGRFTISRDNAKNTVYLQMNSLKPEDTALYDCAAVTYDYWRQGTQVTVSS
- polyreactivity (PSR sort gate): low polyreactivity

Sequence: QVQLVESGGGLVQAGGSLRLSCAASGFTFEIYAMGWYRQAPGKEREFVASISWSVGSTYYADSVKGRFTISRDNAKNTVYLQMNSLKPEDTAVYYCNADWRHKYYHSYLYDYWGQGTQVTVSS
- polyreactivity (PSR sort gate): low polyreactivity

Sequence: QVQLVESGGGLVQAGGSLRLSCAASGFTFERNAMGWYRQAPGKERELVATINGSSDSTYYSDSVKGRFTISRDNAKNTVYLQMNSLKPEDTAVYYCNADSITEGNSRYSHFDYWGQGTQVTVSS
- polyreactivity (PSR sort gate): low polyreactivity

Sequence: QVQLVESGGGLVQAGGSLRLSCAASGFTFETYAMGWNRQAPGKERELVASISRSGGRTYYADSVKGRFTISRDNAKNTVYLQMNSLKPDDTAVYYCAAGYYVRYGRRPTGYGGYDYWGQGTQVTVSS
- polyreactivity (PSR sort gate): high polyreactivity

Sequence: QVQLVESGGGLVQAGGSLRLSCAASGFTFEVNAMGWYRQAPGKERELVAAINRGGSTYYADSVKGRFTISRDNAKNTVYFQMNSLKPEDTAVYYCNRDYEYPTYPHDYWGQGTQVTVSS
- polyreactivity (PSR sort gate): low polyreactivity

Sequence: QVQLVESGGGLVQAGGSLRLSCAASGFTFEWYTMRCYRQAPGKERELVADISGDGSTYYADSVKGRFTISRDNAKNTVYLQMNSLKPEDTAVYYCAARTRRYHRPGLSPGNYWGQGTQVTVSS
- polyreactivity (PSR sort gate): high polyreactivity

Sequence: QVQLVESGGGLVQAGGSLRLSCAASGFTFEYYAMGWYRHAPGKERELVAAITSGGTTYYADSVKGRFTISRDNAKNTDYLQMNSLKPEDTAVYYCAAANRFGPYGYWGQGTQVTVSS
- polyreactivity (PSR sort gate): high polyreactivity

Sequence: QVQLVESGGGLVQAGGSLRLSCAASGFTFEYYAMGWYRQAPGKERELVATITSGGSTYYADSVKGRFTISRDNAKNTVYLQMNSLKPDDTAVYYCITSSPWIEDYWGQGTQVTVSS
- polyreactivity (PSR sort gate): low polyreactivity

Sequence: QVQLVESGGGLVQAGGSLRLSCAASGFTFEYYAMGWYRQARGKERELVASITNSGTRTYYADSVKGRFTISRDNAKNTVYLQMNSLKPEDTAVYYCAATPWNGRYSRFGYWGQGTQVTVSS
- polyreactivity (PSR sort gate): high polyreactivity

Sequence: QVQLVESGGGLVQAGGSLRLSCAASGFTFEYYTMGWYRQAPGTERELVAAITKRGGSTYYADSVKGRFTISRDNAKNTVYLQMNSLKPEDTAVYYCAVRKPYSRYTVNYDSWGQGTQVTVSS
- polyreactivity (PSR sort gate): high polyreactivity

Sequence: QVQLVESGGGLVQAGGSLRLSCAASGFTFFANAMGWYRQAPGKERELVAAISISDATTYYADSVKGRFTISRDNAKNTVYLQMNSLKPEDTAVYDCAAEPEYIAGPLDYWGQGTQVTVSS
- polyreactivity (PSR sort gate): high polyreactivity

Sequence: QVQLVESGGGLVQAGGSLRLSCAASGFTFFHNAMGWYRPAPGKERELVAAITSGGNTYYADSVKGRFTISRDNAKNTVYLQMNSLKPEDTAVYYCAASFWSSGQWYDYWGQGTQVTVSS
- polyreactivity (PSR sort gate): high polyreactivity

Sequence: QVQLVESGGGLVQAGGSLRLSCAASGFTFFHYAMGWYRQATGKEREFVAAINTRGSRTYYADSVKGRFTISRDNAKNTVYLQMNSLKPEDTAVYYCAADSVQVYAWQYYYWGQGTQVTVSS
- polyreactivity (PSR sort gate): high polyreactivity

Sequence: QVQLVESGGGLVQAGGSLRLSCAASGFTFFKYAMGWYRQAPGKERVLVAAITRNGGRTYYADSVKGRFTISRDNAKNTVYLQMNSLKPEDTAVYYCNAASVNGGRDFDYWGQGTQVTVSS
- polyreactivity (PSR sort gate): high polyreactivity

Sequence: QVQLVESGGGLVQAGGSLRLSCAASGFTFFPYAMGWYRQAPGKERELVAGITYIGGSTYYADSVKGRFTISRDNAKNTVYLQMNSLKPEDTAVYYCNAGRIGGFDWGQGTQVTVSS
- polyreactivity (PSR sort gate): low polyreactivity

Sequence: QVQLVESGGGLVQAGGSLRLSCAASGFTFFPYAMGWYRQAPGTERELVAAITETGGRTYYADSVKGRFTISRDNAKYTVYLQMNSLKPEDTAVYYCAKRGLHGYFVRGERGYWGQGTQVTVSS
- polyreactivity (PSR sort gate): low polyreactivity

Sequence: QVQLVESGGGLVQAGGSLRLSCAASGFTFFRNAMGWYRQAPGKERELVAAISGSGGSTYYADSVKGRFTISRDNATNTVYLQMNSLIPVDTAVYYCATYSYPAKVREAYNYWGQGTQVTVSS
- polyreactivity (PSR sort gate): low polyreactivity

Sequence: QVQLVESGGGLVQAGGSLRLSCAASGFTFFSKAMGWYRQAPGKERELVAAITTNGGSTYYADSVKGRFTISRDNAKNTVYLQMNSLKPEETAVYYCAADYSLPWSWLYEYWGQGTQVTVSS
- polyreactivity (PSR sort gate): low polyreactivity

Sequence: QVQLVESGGGLVQAGGSLRLSCAASGFTFFSNAMGWNRQAPGKERELVAAIDWSGDNTNYADSVKGRFTISRDNAKNTVYLQLNSLKPEDTAVYYCAAVYSYYRLYAYPAYYYWGQGTQVTVSS
- polyreactivity (PSR sort gate): low polyreactivity

Sequence: QVQLVESGGGLVQAGGSLRLSCAASGFTFFSYAMGWYRQAPGKERELVAAISWSGGTTYYADSVKGRFTISRDNAKNTDYLQMNSLKPEDTAVYYCAAGPFSYSHYGRKFYYWGQGTQVTVSS
- polyreactivity (PSR sort gate): high polyreactivity

Sequence: QVQLVESGGGLVQAGGSLRLSCAASGFTFFTYAMGWYRQAPGKERELVAAIRWRGSTTYYADSVKGRFTISRDNAKYTVYLQMNSLKPEDTAVYYCAAELRFRQTGLAYWGDYWGQGTQVTVSS
- polyreactivity (PSR sort gate): high polyreactivity

Sequence: QVQLVESGGGLVQAGGSLRLSCAASGFTFFWYAMGWSRQAPGKERELVAGITYRGGSTYYADSVKGRFTISRDNAKNTVYLQMNSLKPEDTAVYYCNADVVTKHISAWWDRYYRRYYYWGQGTQVTVSS
- polyreactivity (PSR sort gate): low polyreactivity

Sequence: QVQLVESGGGLVQAGGSLRLSCAASGFTFFYNDMGSYRQAPGKERELVAAINLSGGTTYYADSVKGRFTISRDNAKNTVYLQMNSLIPEDTAVYYCNRASSTPWYRWRYKPFDYWGQGTQVTVSS
- polyreactivity (PSR sort gate): high polyreactivity

Sequence: QVQLVESGGGLVQAGGSLRLSCAASGFTFFYYVMGWYRQAPGKERDLVAAITRGGSTYYADSVKGRFTISRDNAKNTVDLQMNSLKPEDTAVYYCNKVLRVYLGRFEYYSWGQGTQVTVSS
- polyreactivity (PSR sort gate): high polyreactivity

Sequence: QVQLVESGGGLVQAGGSLRLSCAASGFTFGAYAMGWYRQAPGTERELVAAISYRGGRTYYADSVKGRFTISRDNAKNTVYLQMNSLKPEDTAVYYGNTVYLVTWRVKGYYWGQGTQVTVSS
- polyreactivity (PSR sort gate): low polyreactivity

Sequence: QVQLVESGGGLVQAGGSLRLSCAASGFTFGGNAMGWYRQAPGKEREFVAAITRSGGSTYYADSVKGRFTISRDNAKNTVYLQMNSLKPEDTAVYYCAARRSYPLGYDYWGQGTQVTVSS
- polyreactivity (PSR sort gate): high polyreactivity
